Laboratory results reported in US20240043568A1 (KEYMED BIOSCIENCES, published 2024).
Changes are numbered by the printed parent chain.

B1: aCD3-hVH8/VL5 (antibody, V domains shown)
VH: EVQLVESGGGLVQPGGSLRLSCAASGFTFNTYAMNWVRKAPGKGLEWVGRIRSKYNNYATYYADSVKDRFTISRDDSKNSLYLQMNSLKTEDTAVYYCARHGNFGNSYVSWFAYWGQGTLVTVSS
VL: QAVVTQEPSLTVSPGGTVTLTCRSSTGAVTTSNYANWVQEKPGQAPRGLIGGTNKRAPWTPARFSGSLLGGKAALTITGAQAEDEAEYYCVLWYSNLWVFGGGTKLTVL
notes: Human IgG4, lambda
B2: aCD3-hVH9/VL3 (antibody, V domains shown)
VH: B1 VH with A99V
VL: B1 VL with Q1E, R23E, T26D, R56E, I77L, T78S, A82P, V91A
notes: Human IgG4, lambda
B3: 5D6 (antibody, V domains shown)
VH: QVQLQQSGAELVRPGASVKLSCKALGYTFADYEIHWVKQTPVHGLEWIGAIHPGSGGTAYNQTFEGKATLTADKSSTTAYMELSSLTSEDSAVYYCTRYYSFAYWGQGTLVTVSA
VL: DVLMTQTPLSLPVSLGDQASISCRSSQSLVHSNGNTYLHWYLQKPGQSPKLLIYKVSNRFSGVPDRFSGSGSGTDFTLKISRVEAEDLGVYFCSQSTHVPLTFGAGTKLELK
notes: Chimeric IgG: murine variable regions on human IgG1 CH1-CH3 and an antibody light chain constant region
B4: 46C3 (antibody, V domains shown)
VH: QVQLQQSGPELVKPGASVKISCKASGYTFTDYYINWVKQKPGQGLEWIGWIYPGSGNTKYNEKFKGKATLTVDTSSSTAYMQLSSLTSEDTAVYFCARGRWGQGTLVTVSA
VL: B3 VL with L3V, G16R, L101R, A105G
notes: Chimeric human IgG1
B5: 19F1 (antibody, V domains shown)
VH: B3 VH
VL: DVLMTQTPLSLPVSLGDQASISCRSSQSLVHSNGNTYLHWYLQKPGQSPKLLIYKVSNRFSGVPDRFSGSGSGTDFTLKISRVEAEDLGVYFCSQSTHIPTFGGGTKLELK
notes: Chimeric human IgG1
B6: 47B6 (antibody, V domains shown)
VH: QVQLQQSGAELMKPGASVKISCKATGYTFSSYWIEWVKQRPGHGLEWIGEILPGSGSTNYNEKFKGKATFTADTSSNTAYMQLSSLTSEDSAVYYCARGYWGQGTLVTVSA
VL: B3 VL with V2I, L3V, T7A, L101R, A105G, L111I
notes: Chimeric human IgG1
B7: 39G4 (antibody, V domains shown)
VH: B3 VH
VL: B5 VL with L3V, M4V, I99V, L110I
notes: Chimeric human IgG1
B8: 41F1 (antibody, V domains shown)
VH: B3 VH
VL: B3 VL with S96N
notes: Chimeric human IgG1
B9: 34H1 (antibody, V domains shown)
VH: B3 VH
VL: B3 VL with L3V, T97I
notes: Chimeric human IgG1
B10: 38D2 (antibody, V domains shown)
VH: B3 VH
VL: DVVMTQTPLSLPVSLGDQASISCRSSQSLENSNGNTYLNWYLQKPGQSPQLLIYRVSNRFSGVLDRFSGSGSGTDFTLKISRVEAEDLGVYFCLQVTHVPYTFGGGTKLEIK
notes: Chimeric human IgG1
B11: 30B7 (antibody, V domains shown)
VH: B3 VH with K19R, A30T, I34M, T63K, E65K, T77S
VL: B3 VL with L111I
notes: Chimeric human IgG1
B12: 28G4 (antibody, V domains shown)
VH: B3 VH with Q1E, E65K
VL: B3 VL with L29I, H39Q, F92Y, S94F, S96G, T97S, L101Y, A105G, L111I
notes: Chimeric human IgG1
B13: 29A10 (antibody, V domains shown)
VH: B3 VH with Q1E, E65K
VL: B3 VL with L3V, L111I
notes: Chimeric human IgG1
B14: 30A4 (antibody, V domains shown)
VH: B3 VH with T28A, E65K
VL: B3 VL with L3V
notes: Chimeric human IgG1
B15: 41H1 (antibody, V domains shown)
VH: B3 VH
VL: B3 VL with L3V, K79R, H98R
notes: Chimeric human IgG1
B16: 42A1 (antibody, V domains shown)
VH: B3 VH with N61S, E65K, Y100F
VL: B3 VL with L3V, M4V, V99A, L101Y, A105G, K108R, L111I
notes: Chimeric human IgG1
B17: h49G8VHv6VKv2 (antibody, V domains shown)
VH: QVQLVQSGAEVKKPGSSVKVSCKASGYTFADYEIHWVRQAPGQGLEWMGAIHPGSGGTAYAQKFQGRVTLTADESSTTAYMELSSLRSEDTAVYYCTRYYSFAYWGQGTLVTVSS
VL: DVVMTQSPLSLPVTPGEPASISCRSSQSIVHSNYNTYLEWYLQKPGQSPQLLIYKVSNRFSGVPDRFSGSGSGTDFTLKISRVEAEDVGVYFCLQVTHVPLTFGQGTKLEIK
notes: Humanized 49G8; The name is read as h49G8VHv6 plus h49G8VKv2
B18: h49G8VHv6VKv5 (antibody, V domains shown)
VH: B17 VH
VL: B17 VL with Y34T
notes: Humanized 49G8
B19: h49G8VHv6VKv4 (antibody, V domains shown)
VH: B17 VH
VL: B17 VL with Y34S
notes: Humanized 49G8

Target: T1, human CD3εγ-Fc heterodimer (human)
T1 construct: also called human CD3 εγ protein; recombinant CD3 εγ protein
T1 chain 1: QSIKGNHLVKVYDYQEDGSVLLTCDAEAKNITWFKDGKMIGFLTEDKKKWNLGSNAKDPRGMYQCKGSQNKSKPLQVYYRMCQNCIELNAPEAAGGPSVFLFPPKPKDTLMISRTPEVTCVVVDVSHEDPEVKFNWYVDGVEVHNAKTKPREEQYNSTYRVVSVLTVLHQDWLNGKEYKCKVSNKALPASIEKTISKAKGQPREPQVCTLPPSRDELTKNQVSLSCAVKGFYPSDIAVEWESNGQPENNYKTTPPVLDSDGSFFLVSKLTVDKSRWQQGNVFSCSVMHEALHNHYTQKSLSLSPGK
T1 chain 2: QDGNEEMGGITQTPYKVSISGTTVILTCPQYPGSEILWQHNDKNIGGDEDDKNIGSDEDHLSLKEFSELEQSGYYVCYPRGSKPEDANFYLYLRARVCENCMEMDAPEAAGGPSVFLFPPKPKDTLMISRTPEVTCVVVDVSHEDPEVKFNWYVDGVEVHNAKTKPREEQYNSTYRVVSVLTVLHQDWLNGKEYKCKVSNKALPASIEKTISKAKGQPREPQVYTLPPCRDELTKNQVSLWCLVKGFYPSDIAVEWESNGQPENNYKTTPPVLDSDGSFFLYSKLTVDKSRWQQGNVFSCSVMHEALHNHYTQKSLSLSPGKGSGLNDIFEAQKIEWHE
Assay: ELISA, coated human CD3εγ protein
Description: Human CD3 εγ protein was coated overnight at 4° C. After blocking with 2% skim milk, different dilutions of CD3 antibodies was added to each well and incubated for 1 hour. The secondary antibody HPR-labeled goat anti-human IgG Fc was added. After being developed by the TMB solution, the reaction was stopped with the concentrated sulfuric acid, and the absorbance was read at 450 nm (the results are shown in FIG. 12 and Table 8).

Binder	EC50
B1	0.74 nM
B2	0.7 nM

target: T2, human GPC3 on cells (human, UniProt P51654 25-563); assay: flow cytometry, CHO-human GPC3 cells
T2 construct: whole, on cells; One molecule is used for both CHO-hGPC3 transfectants and GPC3+ HepG2 cells; The assay field names the cell; also called CHO-hGPC3 (clone 2B10); CHO-human GPC3
Description: The binding of the antibodies to human GPC3 stably-transfected cells was detected by FACS. CHO-human GPC3 stably-transfected cells prepared in Example 1 in the logarithmic growth phase were adjusted to 5×10⁵ cells/ml with 4% calf serum (Hyclone, SH30626.06). 100 μl/well of cell suspension was added to a 96-well U-plate, and centrifuged at 300 g for 5 min. The supernatant was discarded. 100 μL of gradient diluted antibodies (initial concentration 200 nM, 3-fold dilution, 12 gradients) was added to each well and incubated at 4° C. for 45 min. The secondary antibody Alexa Fluro647 labeled goat anti-human IgG Fc (1:300 dilution) was added at 50 μL/well, incubated on ice for 45 minutes, and detected by flow cytometry.

Binder	EC50
B3	3.73 nM
B4	0.46 nM
B5	3.59 nM
B6	0.38 nM
B7	2.79 nM
B8	0.91 nM
B9	2.1 nM
B10	3.35 nM
B11	2.78 nM
B12	2.87 nM
B13	3.39 nM
B14	3.68 nM
B15	1.07 nM
B16	6.69 nM

target: T3, recombinant human GPC3 protein (human, UniProt P51654 25-563); assay: BLI (Octet), antibody on Protein A probe
T3 construct: also called human GPC3 full-length protein; recombinant GPC3 protein
Description: (§1) Using BLI technology (Octet), the antibody to be tested was captured on the Protein A probe. The binding capacity with human GPC3 protein (10 μg/ml as the initial concentration, 2-fold gradient, a total of 5 concentration points) was detected. The affinity constant KD was obtained according to the association and dissociation rates.

Binder	Kd	koff	kon
B3	27.7 nM	0.00292 s⁻¹	105000 M⁻¹ s⁻¹
B4	24.3 nM	0.00154 s⁻¹	63600 M⁻¹ s⁻¹
B5	18.3 nM	0.00213 s⁻¹	116000 M⁻¹ s⁻¹
B6	48.2 nM	0.00149 s⁻¹	30800 M⁻¹ s⁻¹
B7	26.2 nM	0.00208 s⁻¹	79500 M⁻¹ s⁻¹
B8	18.5 nM	0.00181 s⁻¹	97900 M⁻¹ s⁻¹
B9	12.9 nM	0.00221 s⁻¹	171000 M⁻¹ s⁻¹
B10	11.3 nM	0.000832 s⁻¹	73400 M⁻¹ s⁻¹
B11	10.9 nM	0.000783 s⁻¹	71700 M⁻¹ s⁻¹
B12	11.3 nM	0.00112 s⁻¹	98900 M⁻¹ s⁻¹
B13	19.8 nM	0.00281 s⁻¹	142000 M⁻¹ s⁻¹
B14	19.9 nM	0.00258 s⁻¹	130000 M⁻¹ s⁻¹
B15	25 nM	0.00264 s⁻¹	106000 M⁻¹ s⁻¹
B16	40.5 nM	0.00243 s⁻¹	60000 M⁻¹ s⁻¹

target: T3, recombinant human GPC3 protein; assay: BLI (Octet), antibody on Protein A probe; remark: another data set of the same source
Description: as §1, with “rates. The 49G8 humanized antibody binds to the recombinant GPC3 protein with high affinity. The affinity data is seen in Table 6.” for “rates.”

Binder	Kd	koff	kon
B17	2 nM	0.000187 s⁻¹	93600 M⁻¹ s⁻¹
B18	2.15 nM	0.000193 s⁻¹	90000 M⁻¹ s⁻¹
B19	2.28 nM	0.000205 s⁻¹	89900 M⁻¹ s⁻¹

target: T2, human GPC3 on cells; assay: flow cytometry on human GPC3-CHO stably-transfected cells, MFI

Binder	EC50 (read off the curve)
B17	~2 nM
B18	~2 nM
B19	~2 nM

target: T3, recombinant human GPC3 protein; assay: ELISA on coated recombinant human GPC3 protein, OD450 [panel Recombinant human GPC3 protein]

Binder	EC50 (read off the curve)
B17	~0.03 nM
B18	~0.03 nM
B19	~0.03 nM

target: recombinant cynomolgus monkey GPC3 full-length protein (cynomolgus monkey, UniProt A0A2K5VK50 24-558); assay: ELISA on coated recombinant cynomolgus monkey GPC3 protein, OD450 [panel Recombinant cynomolgus monkey GPC3 protein]

Binder	EC50 (read off the curve)
B17	~0.03 nM
B18	~0.03 nM
B19	~0.03 nM
